# Biological target: 47 aa syntaxin peptide corresponding to the SNARE interaction part of the syntaxin sequence (aa 201-248) (UniProt P32851)
# Assay: SPR; Biacore 2000, syntaxin peptide covalently immobilised on a CM5 chip; 0.13 mg/ml S-B in buffer B for 5 min; then washing or denaturing reagents 1 min each; 25°C
# Chain of S-B, fusion of brevin to the C-terminus of SNAP25 (chain): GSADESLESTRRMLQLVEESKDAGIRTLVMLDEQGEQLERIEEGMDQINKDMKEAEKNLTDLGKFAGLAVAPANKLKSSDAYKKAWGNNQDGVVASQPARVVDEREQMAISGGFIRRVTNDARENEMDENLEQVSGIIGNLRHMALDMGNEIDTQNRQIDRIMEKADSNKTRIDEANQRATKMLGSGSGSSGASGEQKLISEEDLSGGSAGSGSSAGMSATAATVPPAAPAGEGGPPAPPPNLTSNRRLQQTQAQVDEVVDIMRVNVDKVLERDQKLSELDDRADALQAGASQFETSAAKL
substance,measurement,value
"S-B, fusion of brevin to the C-terminus of SNAP25",percent of originally bound S-B resistant to the harsh treatments,< 50%

# Source: PMC2885309
